The target in the data set is RPA (full-length heterotrimer) (Homo sapiens, UniProt P27694;P15927;P35244 1-616;1-270;1-121). Put plainly: fluorescence anisotropy; 1 mM MnCl2; Fluorescence anisotropy: nuclease buffer (composition and pH not in the material) with 1 mM MnCl2, RPA mixed 1:1 with 10 nM fluorescein-labelled DNA, 30 ul, room temperature, 10 min; sigmoidal fit. The settings on record: protein: recombinant, copies: 1;1;1. In general terms: Polarisation of emitted light reports the rotation of a fluorescent probe.
RPA (full-length heterotrimer), sequence (P27694 whole entry, chain 1 of 3): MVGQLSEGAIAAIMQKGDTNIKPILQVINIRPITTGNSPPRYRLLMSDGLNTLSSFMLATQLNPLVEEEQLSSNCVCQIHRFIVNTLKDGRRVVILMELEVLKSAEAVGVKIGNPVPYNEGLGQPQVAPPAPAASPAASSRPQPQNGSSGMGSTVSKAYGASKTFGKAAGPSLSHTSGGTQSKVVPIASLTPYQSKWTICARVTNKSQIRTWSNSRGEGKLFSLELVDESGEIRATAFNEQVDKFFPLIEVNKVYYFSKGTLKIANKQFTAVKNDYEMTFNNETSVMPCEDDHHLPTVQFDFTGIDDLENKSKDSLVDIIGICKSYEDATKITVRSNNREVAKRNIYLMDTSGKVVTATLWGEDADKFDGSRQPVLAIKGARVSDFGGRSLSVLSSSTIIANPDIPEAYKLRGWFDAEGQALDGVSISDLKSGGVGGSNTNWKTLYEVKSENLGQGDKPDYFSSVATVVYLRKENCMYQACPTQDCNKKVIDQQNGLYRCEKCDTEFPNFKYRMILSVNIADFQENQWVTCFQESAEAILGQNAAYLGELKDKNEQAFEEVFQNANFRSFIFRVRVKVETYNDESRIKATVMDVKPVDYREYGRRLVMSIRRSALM
RPA (full-length heterotrimer), sequence (P15927 whole entry, chain 2 of 3): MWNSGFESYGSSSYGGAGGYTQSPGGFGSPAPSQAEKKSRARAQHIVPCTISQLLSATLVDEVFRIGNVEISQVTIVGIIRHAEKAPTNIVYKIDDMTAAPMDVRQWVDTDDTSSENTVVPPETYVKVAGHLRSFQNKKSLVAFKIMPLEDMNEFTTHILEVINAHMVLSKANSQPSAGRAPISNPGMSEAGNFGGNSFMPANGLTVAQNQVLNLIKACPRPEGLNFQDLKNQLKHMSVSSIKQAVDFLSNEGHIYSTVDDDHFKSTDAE
RPA (full-length heterotrimer), sequence (P35244 whole entry, chain 3 of 3): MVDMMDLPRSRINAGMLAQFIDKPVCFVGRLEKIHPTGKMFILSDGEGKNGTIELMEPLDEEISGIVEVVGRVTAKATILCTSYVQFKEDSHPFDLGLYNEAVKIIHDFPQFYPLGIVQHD

B1: simple fork (mixed)
DNA 1: ATAAATATTTTTTATTAATAATAGATCACCTTTCTTTCTCTTCTCCCCTT
DNA 2: TTCCCCTCCTCTCCTTCCTTCCTGATCTATTATTAATAAAAAATATTTAT
For the molecule B1, under “fork: 28 bp duplex, 22 nt 3' arm (strand 1) and 22 nt 5' arm (strand 2)”, the Kd stood at 6.3 nM.

B2: fork + lagging strand (mixed)
DNA 1: ATAAATATTTTTTATTAATAATAGATCACCTTTCTTTCTCTTCTCCCCTT
DNA 2: TTCCCCTCCTCTCCTTCCTTCCTGATCTATTATTAATAAAAAATATTTAT
?: GGAAGGAAGGAGAGGAGGGGAA
In the case of B2, the dissociation constant Kd (fork 1:2 2:3, 28 bp parental duplex, 22 bp lagging arm, 22 nt 3'-ssDNA arm on strand 1) stood at 6.2 nM.

Usually Kd stands for the concentration at which binding is half-saturated.

The record behind these values is article PMC5510000, “RPA activates the XPF‐ERCC1 endonuclease to initiate processing of DNA interstrand crosslinks”.
